Data from patent US20230391893A1 (published 2023).

Target: dICB-huHF
Test: flow cytometry; LLC1 cells

Kd: 32.3 nM
B1: LLC1 (receptor)
chain: TIDTKRNISAEEGGSVILQCHFSSDTAEVTQVDWKQQDQLLAIYSVDLGWHVASVFSDRVVPGPSLGLTFQSLTMNDTGEYFCTYHTYPGGIYKGRIFLKVQESSDDRNGLAQFQTAPLG
